Target: MERTK (UniProt Q12866)
Assay: phosphorylation enrichment, bacterial display (enrichment ratio); higher = better substrate or ligand; peptides without Tyr show the background
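Further: 11-residue human phosphosite peptides and single-mutation variants displayed on the E. coli surface, counted by deep sequencing, each peptide's frequency after selection divided by its frequency in the unselected input library; frequency after pTyr selection over input frequency; kinase dosed for 20-30% of maximal phosphorylation in three min.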

Chain of MERTK (Q12866 whole entry, looked up): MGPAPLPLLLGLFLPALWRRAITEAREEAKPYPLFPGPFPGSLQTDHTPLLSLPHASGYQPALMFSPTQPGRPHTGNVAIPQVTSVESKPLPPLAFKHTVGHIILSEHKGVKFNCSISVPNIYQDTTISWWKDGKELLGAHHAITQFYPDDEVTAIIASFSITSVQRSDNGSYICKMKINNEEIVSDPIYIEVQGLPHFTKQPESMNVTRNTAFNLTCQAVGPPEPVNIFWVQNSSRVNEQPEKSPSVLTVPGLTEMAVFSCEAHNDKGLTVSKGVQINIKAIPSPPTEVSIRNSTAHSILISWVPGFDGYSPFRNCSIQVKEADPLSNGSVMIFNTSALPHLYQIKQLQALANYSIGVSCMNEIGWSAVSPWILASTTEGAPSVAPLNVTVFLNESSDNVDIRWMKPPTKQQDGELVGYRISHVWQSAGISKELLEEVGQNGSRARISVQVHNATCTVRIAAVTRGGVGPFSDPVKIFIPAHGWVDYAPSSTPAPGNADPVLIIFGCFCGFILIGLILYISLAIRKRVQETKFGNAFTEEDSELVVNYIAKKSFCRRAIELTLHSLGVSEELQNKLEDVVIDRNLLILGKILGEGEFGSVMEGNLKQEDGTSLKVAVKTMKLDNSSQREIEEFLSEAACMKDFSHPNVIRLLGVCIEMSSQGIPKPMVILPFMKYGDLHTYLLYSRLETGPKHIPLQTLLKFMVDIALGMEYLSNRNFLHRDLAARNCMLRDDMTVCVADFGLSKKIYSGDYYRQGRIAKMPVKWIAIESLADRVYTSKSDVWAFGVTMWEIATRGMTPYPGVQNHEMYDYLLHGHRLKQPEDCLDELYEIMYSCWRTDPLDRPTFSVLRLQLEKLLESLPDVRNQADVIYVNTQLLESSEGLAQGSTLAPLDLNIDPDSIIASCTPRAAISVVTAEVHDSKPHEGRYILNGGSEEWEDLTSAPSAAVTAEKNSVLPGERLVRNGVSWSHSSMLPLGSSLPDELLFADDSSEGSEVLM

In order of rising phosphorylation enrichment:
1. GLRYGYGGLGG [KRTAP20-2_Y15_V17G]  0.349
2. LGSNTYPFLLM [SAG_Y120_T125M]  0.36
3. VVTFSYKPAGN [RBL2_Y544_P547A]  0.367
4. TLKVGYKEKQR [EPHA3_Y659_T660K]  0.37
5. CKPGFYNLKEK [LAMA1_Y490]  0.378
6. GRDQPYSGAGD [TYRO3_Y828]  0.383
7. FSGKAYADEER [CRIM1_Y826]  0.395
8. FRTGHYLCNAC [GATA1_Y223_D218Y_YF]  0.399
9. DRFDNYIEKVR [DES_Y122_A120D]  0.406
10. QGRQTYLPQPA [DDR2_Y813]  0.433
11. LDYNEYVRDLN [HPRT1_Y198_F199V]  0.441
12. YGPPQYNMQYS [ERBB2IP_Y977_I979M]  0.478
13. REVPVYTDSEP [FAM120B_Y368]  0.478
14. DEFLEHRRIVG [FAM221A_Y20_Y20H_YF]  0.48
15. IMAYFYMCDRA [CASD1_Y382]  0.494
16. SIVEDYRPPFY [ACVRL1_Y421_G416S]  0.496
17. LNLDTYQKRLR [PLA2G2D_Y126_R121L]  0.511
18. GLAELYEFQKK [CKAP5_Y1854_K1857Q_YF]  0.526
19. IVFTSYVLTIL [TAS2R16_Y239_F240V]  0.526
20. CTTIHYTFMCN [TP53_Y234_N235T_YF]  0.536
21. SRDTCYLVLAV [AMH_Y195_R194C]  0.552
22. RRIEKYVDQGK [IRAK3_Y61_H57R]  0.571
23. QFFQSYFNNNF [ZNF236_Y644]  0.627
24. CEHRGYLYLAI [TEK_Y897]  0.708
25. SWKRRYFLLRA [APBB1IP_Y331]  0.759
26. QEIATYRRLRE [KRT17_Y384_L388R]  0.798
27. PTTKTYFLHFD [HBA1_Y43_P45L]  0.844
28. TPGPNYRPGFN [USH2A_Y463_YF]  0.87
29. QADVIYVNTQL [MERTK_Y872]  0.925
30. YADGVYLALEE [DUOX2_Y70_Q71L]  1.13
31. VEGISYDFIPT [CBS_Y308_G307S]  2.96
32. PADRAYSWFQH [NDST1_Y711_YF]  4.22
33. GDYYCYLAEVA [YWHAG_Y133_R132C]  7.27

System: AncSZ
Assay: as above

In order of rising phosphorylation enrichment:
1. TLKVGYKEKQR [EPHA3_Y659_T660K]  0.367
2. GRDQPYSGAGD [TYRO3_Y828]  0.442
3. GLRYGYGGLGG [KRTAP20-2_Y15_V17G]  0.507
4. LNLDTYQKRLR [PLA2G2D_Y126_R121L]  0.517
5. FRTGHYLCNAC [GATA1_Y223_D218Y_YF]  0.62
6. CKPGFYNLKEK [LAMA1_Y490]  0.693
7. TPGPNYRPGFN [USH2A_Y463_YF]  0.707
8. DRFDNYIEKVR [DES_Y122_A120D]  0.709
9. SWKRRYFLLRA [APBB1IP_Y331]  0.727
10. QEIATYRRLRE [KRT17_Y384_L388R]  0.734
11. DEFLEHRRIVG [FAM221A_Y20_Y20H_YF]  0.747
12. QGRQTYLPQPA [DDR2_Y813]  0.752
13. VVTFSYKPAGN [RBL2_Y544_P547A]  0.754
14. QFFQSYFNNNF [ZNF236_Y644]  0.766
15. YGPPQYNMQYS [ERBB2IP_Y977_I979M]  0.794
16. RRIEKYVDQGK [IRAK3_Y61_H57R]  0.88
17. FSGKAYADEER [CRIM1_Y826]  0.895
18. CTTIHYTFMCN [TP53_Y234_N235T_YF]  0.939
19. GLAELYEFQKK [CKAP5_Y1854_K1857Q_YF]  0.973
20. CEHRGYLYLAI [TEK_Y897]  1.04
21. IMAYFYMCDRA [CASD1_Y382]  1.11
22. LGSNTYPFLLM [SAG_Y120_T125M]  1.12
23. PADRAYSWFQH [NDST1_Y711_YF]  1.14
24. SIVEDYRPPFY [ACVRL1_Y421_G416S]  1.22
25. VEGISYDFIPT [CBS_Y308_G307S]  1.28
26. REVPVYTDSEP [FAM120B_Y368]  1.35
27. IVFTSYVLTIL [TAS2R16_Y239_F240V]  1.41
28. SRDTCYLVLAV [AMH_Y195_R194C]  1.52
29. QADVIYVNTQL [MERTK_Y872]  1.61
30. LDYNEYVRDLN [HPRT1_Y198_F199V]  1.63
31. PTTKTYFLHFD [HBA1_Y43_P45L]  1.66
32. YADGVYLALEE [DUOX2_Y70_Q71L]  1.66
33. GDYYCYLAEVA [YWHAG_Y133_R132C]  5.32

Target: Hck (UniProt P08631)
Assay: as above

Chain of Hck (P08631 whole entry, looked up): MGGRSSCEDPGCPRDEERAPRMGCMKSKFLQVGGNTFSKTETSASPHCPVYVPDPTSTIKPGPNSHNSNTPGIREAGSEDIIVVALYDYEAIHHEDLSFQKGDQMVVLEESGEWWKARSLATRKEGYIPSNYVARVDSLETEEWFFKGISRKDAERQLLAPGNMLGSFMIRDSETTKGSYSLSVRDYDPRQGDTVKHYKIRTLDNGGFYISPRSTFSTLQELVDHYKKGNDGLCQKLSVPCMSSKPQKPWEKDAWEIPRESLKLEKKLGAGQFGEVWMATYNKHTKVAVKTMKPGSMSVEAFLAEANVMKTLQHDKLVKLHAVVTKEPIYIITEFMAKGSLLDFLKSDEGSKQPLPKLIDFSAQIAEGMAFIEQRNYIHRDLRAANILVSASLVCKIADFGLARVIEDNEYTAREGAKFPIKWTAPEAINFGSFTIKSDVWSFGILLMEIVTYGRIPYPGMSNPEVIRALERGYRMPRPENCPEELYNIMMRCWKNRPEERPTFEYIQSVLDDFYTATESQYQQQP

In order of rising phosphorylation enrichment:
1. TLKVGYKEKQR [EPHA3_Y659_T660K]  0.328
2. GLRYGYGGLGG [KRTAP20-2_Y15_V17G]  0.329
3. CKPGFYNLKEK [LAMA1_Y490]  0.357
4. VVTFSYKPAGN [RBL2_Y544_P547A]  0.378
5. IMAYFYMCDRA [CASD1_Y382]  0.401
6. DRFDNYIEKVR [DES_Y122_A120D]  0.413
7. SIVEDYRPPFY [ACVRL1_Y421_G416S]  0.427
8. FRTGHYLCNAC [GATA1_Y223_D218Y_YF]  0.443
9. RRIEKYVDQGK [IRAK3_Y61_H57R]  0.445
10. GRDQPYSGAGD [TYRO3_Y828]  0.445
11. PADRAYSWFQH [NDST1_Y711_YF]  0.466
12. DEFLEHRRIVG [FAM221A_Y20_Y20H_YF]  0.47
13. LGSNTYPFLLM [SAG_Y120_T125M]  0.492
14. FSGKAYADEER [CRIM1_Y826]  0.499
15. LNLDTYQKRLR [PLA2G2D_Y126_R121L]  0.518
16. QFFQSYFNNNF [ZNF236_Y644]  0.532
17. CTTIHYTFMCN [TP53_Y234_N235T_YF]  0.576
18. TPGPNYRPGFN [USH2A_Y463_YF]  0.586
19. CEHRGYLYLAI [TEK_Y897]  0.614
20. IVFTSYVLTIL [TAS2R16_Y239_F240V]  0.623
21. REVPVYTDSEP [FAM120B_Y368]  0.643
22. SRDTCYLVLAV [AMH_Y195_R194C]  0.651
23. LDYNEYVRDLN [HPRT1_Y198_F199V]  0.712
24. QGRQTYLPQPA [DDR2_Y813]  0.713
25. YGPPQYNMQYS [ERBB2IP_Y977_I979M]  0.746
26. QEIATYRRLRE [KRT17_Y384_L388R]  0.779
27. PTTKTYFLHFD [HBA1_Y43_P45L]  0.816
28. SWKRRYFLLRA [APBB1IP_Y331]  0.943
29. GLAELYEFQKK [CKAP5_Y1854_K1857Q_YF]  1.23
30. YADGVYLALEE [DUOX2_Y70_Q71L]  1.59
31. VEGISYDFIPT [CBS_Y308_G307S]  1.9
32. QADVIYVNTQL [MERTK_Y872]  2.19
33. GDYYCYLAEVA [YWHAG_Y133_R132C]  4.66

Target: Fyn (UniProt P06241)
Assay: as above

Chain of Fyn (P06241 whole entry, looked up): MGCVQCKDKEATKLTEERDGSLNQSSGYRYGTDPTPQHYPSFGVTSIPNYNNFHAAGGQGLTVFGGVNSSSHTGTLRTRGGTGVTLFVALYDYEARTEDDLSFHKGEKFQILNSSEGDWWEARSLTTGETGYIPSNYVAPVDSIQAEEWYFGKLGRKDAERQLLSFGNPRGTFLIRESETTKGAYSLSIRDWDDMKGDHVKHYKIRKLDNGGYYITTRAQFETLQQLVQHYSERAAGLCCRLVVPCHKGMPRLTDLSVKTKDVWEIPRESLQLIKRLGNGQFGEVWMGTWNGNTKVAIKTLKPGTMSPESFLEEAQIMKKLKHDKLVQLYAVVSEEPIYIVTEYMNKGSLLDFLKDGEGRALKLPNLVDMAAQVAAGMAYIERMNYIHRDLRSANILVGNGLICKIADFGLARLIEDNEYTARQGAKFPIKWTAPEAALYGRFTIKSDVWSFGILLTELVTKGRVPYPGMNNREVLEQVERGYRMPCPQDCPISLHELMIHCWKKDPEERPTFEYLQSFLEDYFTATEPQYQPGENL

In order of falling phosphorylation enrichment:
1. GDYYCYLAEVA [YWHAG_Y133_R132C]  4.95
2. YADGVYLALEE [DUOX2_Y70_Q71L]  2.28
3. QADVIYVNTQL [MERTK_Y872]  2.13
4. PADRAYSWFQH [NDST1_Y711_YF]  0.833
5. PTTKTYFLHFD [HBA1_Y43_P45L]  0.813
6. REVPVYTDSEP [FAM120B_Y368]  0.753
7. LDYNEYVRDLN [HPRT1_Y198_F199V]  0.695
8. QFFQSYFNNNF [ZNF236_Y644]  0.682
9. LNLDTYQKRLR [PLA2G2D_Y126_R121L]  0.672
10. IVFTSYVLTIL [TAS2R16_Y239_F240V]  0.667
11. GLAELYEFQKK [CKAP5_Y1854_K1857Q_YF]  0.64
12. GRDQPYSGAGD [TYRO3_Y828]  0.623
13. QEIATYRRLRE [KRT17_Y384_L388R]  0.61
14. SWKRRYFLLRA [APBB1IP_Y331]  0.564
15. SRDTCYLVLAV [AMH_Y195_R194C]  0.555
16. YGPPQYNMQYS [ERBB2IP_Y977_I979M]  0.547
17. TPGPNYRPGFN [USH2A_Y463_YF]  0.536
18. CTTIHYTFMCN [TP53_Y234_N235T_YF]  0.535
19. VEGISYDFIPT [CBS_Y308_G307S]  0.529
20. RRIEKYVDQGK [IRAK3_Y61_H57R]  0.516
21. QGRQTYLPQPA [DDR2_Y813]  0.495
22. CEHRGYLYLAI [TEK_Y897]  0.494
23. SIVEDYRPPFY [ACVRL1_Y421_G416S]  0.483
24. FSGKAYADEER [CRIM1_Y826]  0.463
25. FRTGHYLCNAC [GATA1_Y223_D218Y_YF]  0.44
26. DRFDNYIEKVR [DES_Y122_A120D]  0.432
27. DEFLEHRRIVG [FAM221A_Y20_Y20H_YF]  0.425
28. IMAYFYMCDRA [CASD1_Y382]  0.421
29. VVTFSYKPAGN [RBL2_Y544_P547A]  0.395
30. LGSNTYPFLLM [SAG_Y120_T125M]  0.384
31. CKPGFYNLKEK [LAMA1_Y490]  0.359
32. GLRYGYGGLGG [KRTAP20-2_Y15_V17G]  0.349
33. TLKVGYKEKQR [EPHA3_Y659_T660K]  0.333

From the supplement of paper PMC10065799, “High-throughput profiling of sequence recognition by tyrosine kinases and SH2 domains using bacterial peptide display” (eLife, 2023)
